Assays:
[1] = biological target: T1, mOrai1-hOrai1 ECL2 (AESVIV) protein (human/mouse chimera, UniProt Q8BWG9 1-304 (mouse entry)); experiment: flow cytometry on HEK-293 cells transfected with the chimera (loss of binding experiment)
T1 construct: also called Ch

[2] = biological target: T2, mOrai1-hOrai1 ECL2 (SPTKPPAE) protein (human/mouse chimera, UniProt Q8BWG9 1-304 (mouse entry)); experiment: as above
T2 construct: also called Ch

[3] = biological target: T3, mOrai1-hOrai1 ECL2 (KPPAE) protein (human/mouse chimera, UniProt Q8BWG9 1-304 (mouse entry)); experiment: as above
T3 construct: also called Ch
T3 sequence (Q8BWG9 other isoform, or with tags, fused parts or gaps): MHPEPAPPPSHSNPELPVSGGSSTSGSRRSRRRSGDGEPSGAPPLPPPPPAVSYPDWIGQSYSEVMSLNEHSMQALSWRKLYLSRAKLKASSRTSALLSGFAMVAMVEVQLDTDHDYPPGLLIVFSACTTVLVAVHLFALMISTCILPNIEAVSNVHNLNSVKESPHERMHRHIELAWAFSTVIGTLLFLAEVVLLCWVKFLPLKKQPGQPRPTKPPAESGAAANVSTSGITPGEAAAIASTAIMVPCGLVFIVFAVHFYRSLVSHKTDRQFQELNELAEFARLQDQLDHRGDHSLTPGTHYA

[4] = biological target: T4, mOrai1-hOrai1 ECL2 (…) protein (human/mouse chimera, UniProt Q8BWG9 1-304 (mouse entry)); experiment: as above
T4 construct: also called Ch
T4 sequence (Q8BWG9 other isoform, or with tags, fused parts or gaps): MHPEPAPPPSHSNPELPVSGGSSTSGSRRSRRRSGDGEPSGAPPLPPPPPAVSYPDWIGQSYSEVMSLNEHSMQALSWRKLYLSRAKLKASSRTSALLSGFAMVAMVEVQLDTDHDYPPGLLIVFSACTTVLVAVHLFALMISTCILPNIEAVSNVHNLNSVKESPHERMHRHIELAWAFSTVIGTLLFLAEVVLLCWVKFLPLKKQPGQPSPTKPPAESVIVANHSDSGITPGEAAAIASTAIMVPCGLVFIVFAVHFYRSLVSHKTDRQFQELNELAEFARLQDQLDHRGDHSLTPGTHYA

[5] = biological target: T5, mOrai1-hOrai1 ECL2 (…) protein (human/mouse chimera, UniProt Q8BWG9 1-304 (mouse entry)); experiment: as above; remark: listed apart in the source
T5 construct: also called Ch
T5 sequence (Q8BWG9 other isoform, or with tags, fused parts or gaps): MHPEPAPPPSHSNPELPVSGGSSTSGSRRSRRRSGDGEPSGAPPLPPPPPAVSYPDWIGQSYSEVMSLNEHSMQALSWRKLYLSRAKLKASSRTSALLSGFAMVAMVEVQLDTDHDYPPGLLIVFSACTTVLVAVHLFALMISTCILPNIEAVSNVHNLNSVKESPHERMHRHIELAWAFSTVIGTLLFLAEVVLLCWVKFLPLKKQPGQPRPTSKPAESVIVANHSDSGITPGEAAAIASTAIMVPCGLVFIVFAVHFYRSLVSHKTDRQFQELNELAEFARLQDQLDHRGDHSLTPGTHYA

[6] = biological target: T6, mOrai1-hOrai1 ECL2 (…) protein (human/mouse chimera, UniProt Q8BWG9 1-304 (mouse entry)); experiment: as above; remark: listed apart in the source
T6 construct: also called Ch
T6 sequence (Q8BWG9 other isoform, or with tags, fused parts or gaps): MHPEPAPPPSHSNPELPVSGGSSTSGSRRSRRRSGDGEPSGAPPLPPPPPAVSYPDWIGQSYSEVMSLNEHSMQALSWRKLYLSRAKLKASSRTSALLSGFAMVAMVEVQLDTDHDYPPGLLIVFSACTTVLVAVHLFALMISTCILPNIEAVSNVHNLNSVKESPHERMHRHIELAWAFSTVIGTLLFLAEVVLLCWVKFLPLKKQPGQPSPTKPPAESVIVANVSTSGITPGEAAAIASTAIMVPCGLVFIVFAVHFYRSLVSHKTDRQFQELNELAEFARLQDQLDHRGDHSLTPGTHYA

[7] = biological target: T7, mOrai1-hOrai1 ECL2 (…) protein (human/mouse chimera, UniProt Q8BWG9 1-304 (mouse entry)); experiment: as above; remark: listed apart in the source
T7 construct: also called Ch
T7 sequence (Q8BWG9 other isoform, or with tags, fused parts or gaps): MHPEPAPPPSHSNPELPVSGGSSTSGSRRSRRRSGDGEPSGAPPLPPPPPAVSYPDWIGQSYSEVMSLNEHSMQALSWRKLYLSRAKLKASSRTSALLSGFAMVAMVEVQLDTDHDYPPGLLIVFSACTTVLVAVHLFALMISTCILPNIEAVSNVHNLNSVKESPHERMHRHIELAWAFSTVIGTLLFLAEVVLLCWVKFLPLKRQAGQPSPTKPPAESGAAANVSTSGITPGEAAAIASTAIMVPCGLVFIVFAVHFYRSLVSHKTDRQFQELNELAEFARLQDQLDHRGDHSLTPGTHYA

[8] = biological target: T8, hOrai1-mOrai1 ECL2 (VST) protein (human/mouse chimera, UniProt Q96D31 1-301); experiment: FACS, 293EBNA; design: concentration or dose not given beside the values
T8 construct: also called Ch
T8 sequence (Q96D31 other isoform, or with tags, fused parts or gaps): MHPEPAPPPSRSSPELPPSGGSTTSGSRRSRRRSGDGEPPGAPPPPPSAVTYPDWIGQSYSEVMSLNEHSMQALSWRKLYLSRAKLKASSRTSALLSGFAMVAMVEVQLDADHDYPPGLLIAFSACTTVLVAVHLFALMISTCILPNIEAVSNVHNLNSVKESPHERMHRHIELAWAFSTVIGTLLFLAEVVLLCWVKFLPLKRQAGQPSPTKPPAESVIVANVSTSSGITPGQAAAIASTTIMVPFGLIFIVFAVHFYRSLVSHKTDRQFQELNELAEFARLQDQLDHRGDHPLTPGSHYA
Excerpt: (§1) FIG. 17A-D illustrates the results of FACS analysis showing binding to the indicated mOrai1-hOrai1 ECL2 chimeric mutants expressed on the surface of HEK-293-EBNA cells. Transfected cells were stained first with recombinant monoclonal antibodies then counter-stained with a secondary phycoerythrin-labeled goat (“Gt”) anti-human (“Hu”) IgG F(ab′)₂ antibody fragment and visualized using FACS.
(§2) Representative results of FACS analysis of binding to the mutant hOrai1-mOrai1 ECL2 chimera described above by exemplary anti-hOrai1 antibodies of the present invention are shown in FIG. 17A-D, Table 10A and Table 10B below. Table 10A (Campaign 1) and Table 10B (Campaign 2) show the gain in binding ability of exemplary monoclonal antibodies to hOrai 1-mOrai 1 ECL2 chimera mutants as determined by FACS.

[9] = biological target: T9, hOrai1-mOrai1 ECL2 chimeric protein (human/mouse chimera, UniProt Q96D31 1-301); experiment: FACS, 293EBNA; design: concentration or dose not given beside the values
T9 construct: human Orai1 with mouse ECL2; also called Ch
T9 sequence (Q96D31 other isoform, or with tags, fused parts or gaps mutant): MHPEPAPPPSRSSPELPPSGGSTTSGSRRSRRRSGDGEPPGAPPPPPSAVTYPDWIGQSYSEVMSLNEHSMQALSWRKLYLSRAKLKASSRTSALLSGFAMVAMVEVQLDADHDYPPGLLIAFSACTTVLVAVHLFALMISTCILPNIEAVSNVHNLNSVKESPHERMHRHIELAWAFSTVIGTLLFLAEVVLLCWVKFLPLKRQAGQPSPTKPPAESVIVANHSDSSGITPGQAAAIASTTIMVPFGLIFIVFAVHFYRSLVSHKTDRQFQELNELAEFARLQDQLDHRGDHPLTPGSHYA
Excerpt: as §1, §2

[10] = biological target: T10, hOrai1-mOrai1 ECL2 (PASGAA) protein (human/mouse chimera, UniProt Q96D31 1-301); experiment: FACS, 293EBNA; design: concentration or dose not given beside the values
T10 construct: also called Ch
T10 sequence (Q96D31 other isoform, or with tags, fused parts or gaps): as the sequence (Q96D31 other isoform, or with tags, fused parts or gaps mutant) above, with A216P, E217A, V219G, I220A, V221A counted along it
Excerpt: as §1, §2

[11] = biological target: T11, hOrai1-mOrai1 ECL2 (GAA) protein (human/mouse chimera, UniProt Q96D31 1-301); experiment: FACS, 293EBNA; design: concentration or dose not given beside the values
T11 construct: also called Ch
T11 sequence (Q96D31 other isoform, or with tags, fused parts or gaps): as the sequence (Q96D31 other isoform, or with tags, fused parts or gaps mutant) above, with V219G, I220A, V221A counted along it
Excerpt: as §1, §2

[12] = biological target: T12, hOrai1-mOrai1 ECL2 (…) protein (human/mouse chimera, UniProt Q96D31 1-301); experiment: FACS, 293EBNA; design: concentration or dose not given beside the values
T12 construct: also called Ch
T12 sequence (Q96D31 other isoform, or with tags, fused parts or gaps): as the sequence (Q96D31 other isoform, or with tags, fused parts or gaps mutant) above, with A216P, E217A, V219G, I220A, V221A, H224V, D226T counted along it
Excerpt: as §1, §2

[13] = biological target: T13, hOrai1-mOrai1 ECL2 (AANVST) protein (human/mouse chimera, UniProt Q96D31 1-301); experiment: FACS, 293EBNA; design: concentration or dose not given beside the values
T13 construct: also called Ch
T13 sequence (Q96D31 other isoform, or with tags, fused parts or gaps): as the sequence (Q96D31 other isoform, or with tags, fused parts or gaps mutant) above, with V221A, H224V, D226T counted along it
Excerpt: as §1, §2

human Orai1 = human Orai1 (human, UniProt Q96D31 1-301); experiment: cell-based or functional assay
Sequence of human Orai1 (Q96D31 whole entry): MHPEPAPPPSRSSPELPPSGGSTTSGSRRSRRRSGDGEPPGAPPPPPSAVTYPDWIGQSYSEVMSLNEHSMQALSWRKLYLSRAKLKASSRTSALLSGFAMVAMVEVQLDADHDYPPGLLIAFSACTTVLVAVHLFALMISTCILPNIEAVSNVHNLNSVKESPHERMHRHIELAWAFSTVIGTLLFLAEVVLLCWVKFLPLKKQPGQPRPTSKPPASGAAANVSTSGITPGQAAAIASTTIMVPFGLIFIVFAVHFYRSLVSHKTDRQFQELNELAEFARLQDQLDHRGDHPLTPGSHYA

rat Orai1 = biological target: T14, rat Orai1 (rat, UniProt Q5M848 1-304); experiment: FACS, 293EBNA transfectants with STIM1, thapsigargin
T14 construct: co-expressed with rat STIM1; also called rOrai1
T14 sequence (Q5M848 whole entry): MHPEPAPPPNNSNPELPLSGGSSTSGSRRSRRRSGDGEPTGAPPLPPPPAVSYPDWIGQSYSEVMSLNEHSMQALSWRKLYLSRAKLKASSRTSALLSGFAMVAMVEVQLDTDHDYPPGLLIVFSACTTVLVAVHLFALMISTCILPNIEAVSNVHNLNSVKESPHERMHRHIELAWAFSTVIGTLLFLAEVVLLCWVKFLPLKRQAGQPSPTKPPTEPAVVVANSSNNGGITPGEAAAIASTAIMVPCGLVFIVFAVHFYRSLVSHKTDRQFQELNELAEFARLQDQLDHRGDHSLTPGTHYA
Procedure: (§3) FIG. 13A-B illustrates the results of FACS analysis showing binding to human Orai1 expressed on the surface of HEK-293-EBNA cells that were treated with 2 μM Thapsigargin. HEK-293-EBNA cells were transiently transfected with human Orai1 and human STIM1, mouse Orai1 and mouse STIM1, rat Orai1 and rat STIM1 and control empty vector. Transfected cells were stained first with recombinant monoclonal antibodies then counter-stained with a secondary phycoerythrin-labeled Gt anti-Hu IgG F(ab′)₂ or Gt anti-Mu IgG F(ab′)₂ antibody fragment, as appropriate, and visualized using FACS.
(§4) FACS binding analysis. Transfected 293EBNA cells transiently expressed hOrai1, human Orai2, or human Orai3 (results of binding comparison in FIG. 11A-B), or hOrai1(S218G) (results of binding comparison in FIG. 12A-B); or hOrai1 and hSTIM1; mOrai1 and mouse STIM1; or rat Orai1 and rat STIM1 (results of binding comparison in FIG. 13). The transfected cells were harvested at 48 hours post-transfection. Cells transfected with pcDNA3.1 were used as negative controls. Cells were washed once with ice-cold 1×PBS, resuspended in ice-cold FACS buffer (1×D-PBS+2% goat serum), and 2×10⁵ cells in […] were stained per antibody combination. All antibody incubation steps were performed on ice for 1 hour. […] Next, the unlabelled antibody was detected using goat F(ab′)₂ anti-mouse or anti-human IgG-phycoerythrin (IgG-PE), followed by a wash with 200 μL of ice-cold FACS buffer before flow cytometry analysis. Unstained cells and cells stained with detecting antibodies were used as negative controls. The values of relative level of fluorescence were calculated using FCS Express (De Novo Software) and mean values were calculated using log-transformed data (geometric mean). Purified mAbs were assessed by FACS assay for their ability to specifically bind human Orai1, Orai2 and Orai3 proteins expressed on HEK-293 cells.

mouse Orai1 = biological target: T15, mouse Orai1 (mouse, UniProt Q8BWG9 1-304); experiment: as above
T15 construct: co-expressed with mouse STIM1; also called mOrai1
T15 sequence (Q8BWG9 whole entry): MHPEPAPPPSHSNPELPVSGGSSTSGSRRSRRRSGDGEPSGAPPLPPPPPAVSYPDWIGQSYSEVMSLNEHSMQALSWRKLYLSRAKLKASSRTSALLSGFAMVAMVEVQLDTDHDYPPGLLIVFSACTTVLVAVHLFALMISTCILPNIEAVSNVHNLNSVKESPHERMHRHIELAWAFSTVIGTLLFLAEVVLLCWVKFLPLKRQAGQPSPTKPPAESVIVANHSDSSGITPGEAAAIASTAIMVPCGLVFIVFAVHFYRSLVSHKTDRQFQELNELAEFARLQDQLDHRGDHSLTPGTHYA
Procedure: as §3, §4

human Orai2 = biological target: T16, human Orai2 (human, UniProt Q96SN7 1-254); experiment: FACS, 293EBNA transfectants
T16 construct: also called hOrai2
T16 sequence (Q96SN7 whole entry): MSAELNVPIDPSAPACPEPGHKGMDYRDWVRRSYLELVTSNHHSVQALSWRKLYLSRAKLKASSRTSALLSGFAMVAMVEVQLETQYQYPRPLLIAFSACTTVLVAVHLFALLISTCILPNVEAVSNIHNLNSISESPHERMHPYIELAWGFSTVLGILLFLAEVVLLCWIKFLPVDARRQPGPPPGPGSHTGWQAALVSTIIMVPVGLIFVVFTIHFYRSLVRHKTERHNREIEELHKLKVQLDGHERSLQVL
Procedure: (§5) Purified monoclonal antibodies from hybridoma supernantants of the subclones derived from initial hits were assessed for binding to human Orai1, Orai2 and Orai3 expressed on HEK-293-EBNA cells along with vector transfected control parental cells. Cells stained with or without primary mAbs were counter-stained with a secondary phycoerythrin-labeled goat (“Gt”) anti-human (“Hu”) IgG F(ab′)₂ antibody fragment and visualized using FACS.
as §4

human Orai3 = human Orai3 (human, UniProt Q9BRQ5 1-295); experiment: FACS, 293EBNA transfectants
Procedure: as §5, §4

T1 sequence (Q8BWG9 other isoform, or with tags, fused parts or gaps): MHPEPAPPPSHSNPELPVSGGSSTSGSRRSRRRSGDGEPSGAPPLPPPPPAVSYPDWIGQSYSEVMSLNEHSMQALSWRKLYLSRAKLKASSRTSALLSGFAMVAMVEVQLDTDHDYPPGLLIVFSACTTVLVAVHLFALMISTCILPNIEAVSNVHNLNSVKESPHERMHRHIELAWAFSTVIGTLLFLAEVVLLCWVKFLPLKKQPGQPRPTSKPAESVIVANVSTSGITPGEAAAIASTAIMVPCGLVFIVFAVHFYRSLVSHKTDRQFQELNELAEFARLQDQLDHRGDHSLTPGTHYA
T2 sequence (Q8BWG9 other isoform, or with tags, fused parts or gaps): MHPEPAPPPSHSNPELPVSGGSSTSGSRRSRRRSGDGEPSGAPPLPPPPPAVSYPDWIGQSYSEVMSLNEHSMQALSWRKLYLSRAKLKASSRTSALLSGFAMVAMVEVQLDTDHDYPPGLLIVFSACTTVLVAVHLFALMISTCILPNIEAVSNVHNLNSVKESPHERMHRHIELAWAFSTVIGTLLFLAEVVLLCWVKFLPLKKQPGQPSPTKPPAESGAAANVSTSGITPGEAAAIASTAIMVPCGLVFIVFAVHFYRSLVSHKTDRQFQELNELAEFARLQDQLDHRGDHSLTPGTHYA

Binder	binding result [1]	binding result [2]	binding result [3]	binding result [4]	binding result [5]	binding result [6]	binding result [7]	percent of control (POC) of FACS Geo Mean [8] [%]	percent of control (POC) of FACS Geo Mean [9] [%]	percent of control (POC) of FACS Geo Mean [10] [%]	percent of control (POC) of FACS Geo Mean [11] [%]	percent of control (POC) of FACS Geo Mean [12] [%]	percent of control (POC) of FACS Geo Mean [13] [%]	IC50 IFN-γ, whole blood Donor B (human Orai1) [nM]	IC50 IL-2, whole blood Donor A (human Orai1) [nM]	IC50 IL-2, whole blood Donor B (human Orai1) [nM]	binding result (rat Orai1)	binding result (mouse Orai1)	binding result (human Orai2)	binding result (human Orai3)	other results
mAb 5B5.2 (antibody, human IgG2, lambda, V domains shown, fully human IgG2 lambda, Campaign 2; same chains as 5B5.1) VH: QVQLVQSGAEVKKPGASVKVSCKASGYTFTDYYINWVRQAPGQGLEWMGWINPNSGGTDYAQKFQGRVTMTRDTSIRTAYMELNRLTSDDTAVYYCAREYGGYEDWFDPWGQGTLVTVSS VL: QSVLTQPPSVSGAPGQRVTISCTGSNSNIGAGFDVHWYQQLPGTVPKLLIYGNNNRPSGVPDRFSGSKSGTSASLAITGLQAEDEADYYCQSYDSRLTVFGGGTKLTVLG	no binding	no binding	no binding	no binding	no binding	no binding	no binding	< 1	< 1	< 1	< 1	< 1	< 1	6.58	1.39	3.1	no binding (tested: 1 µg)	no binding (tested: 1 µg)	no binding (tested: 1 µg)	no binding (tested: 1 µg)	–
mAb 5A1.1 (antibody, human IgG2, fully human, Campaign 2; lambda CL-1) heavy: QVQLVQSGAEVKKPGASVKVPCKASGYTFTDYYINWVRQAPGQGLEWMGWINPNNGGTNYAQKFQGRVTMTRDTSISTAYMELRRLRSDDTAVYYCARERGGYEDWFDPWGQGTLVTVSSASTKGPSVFPLAPCSRSTSESTAALGCLVKDYFPEPVTVSWNSGALTSGVHTFPAVLQSSGLYSLSSVVTVPSSNFGTQTYTCNVDHKPSNTKVDKTVERKCCVECPPCPAPPVAGPSVFLFPPKPKDTLMISRTPEVTCVVVDVSHEDPEVQFNWYVDGVEVHNAKTKPREEQFNSTFRVVSVLTVVHQDWLNGKEYKCKVSNKGLPAPIEKTISKTKGQPREPQVYTLPPSREEMTKNQVSLTCLVKGFYPSDIAVEWESNGQPENNYKTTPPMLDSDGSFFLYSKLTVDKSRWQQGNVFSCSVMHEALHNHYTQKSLSLSPGK VL: QSVLTQPPSVSGAPGQRVTISCTGSSSNIGAGFDVHWYQQLPVTAPKLLIYGNRNRPSGVPARFSGSKSGTSASLAITGLQAEDEAVYYCQSYDSSLTVFGGGTKLTVL	no binding	no binding	no binding	no binding	no binding	no binding	no binding	< 1	< 1	< 1	< 1	< 1	< 1	1.66	11.2	5.59	no binding (tested: 1 µg)	no binding (tested: 1 µg)	no binding (tested: 1 µg)	no binding (tested: 1 µg)	IC50 IFN-γ, whole blood Donor A (human Orai1): 8.15 nM
